We go through eight molecules from patent publication US20230406921A1 (MABWELL SHANGHAI BIOSCIENCE, published 2023).

Assay [1] deals with T1, recombinant antigen of the extracellular region of CD47 (Sino Biological, Cat: 12283-H08H) (human, UniProt Q08722 19-139).
T1 construct: extracellular domain; also called recombinant CD47 extracellular region; CD47 recombinant protein
Nature of the assay: Fortebio BLI. In general terms: Biolayer interferometry detects binding as a change in optical thickness at a sensor tip.

The target in assay [2] is PD-L1 (human, UniProt Q9NZQ7 19-239, limits assumed). As to the kind of experiment: Fortebio BLI.
The target of assay [3] is T2, CD47 on the surface of human red blood cells (human, UniProt Q08722 19-323).
T2 construct: whole, on cells; Same protein as m3, on red blood cells; also called hRBC; RBC
Nature of the assay: FACS, human red blood cells, antibody 1000 nM. Background: Flow cytometry measures light scatter and fluorescence of single cells or particles in a stream.
Procedure: (§1) In the experiment of analyzing the binding to human red blood cells, the antibody was used at a concentration of 1000 nM; and in the experiment of analyzing the binding to tumor cells, the antibody was used at a concentration of 100 nM.

Assay [4] has as its target T3, CD47 on the surface of tumor cells (human, UniProt Q08722 19-323).
T3 construct: whole, on cells; Same protein as m4; also called CD47 antigen on the surface of U937 and CCRF cells; SKOV-3
Nature of the assay: FACS, SKOV-3 tumor cells (no PD-L1), antibody 100 nM.
Procedure: as §1

Assay [5] deals with T2, CD47 on the surface of human red blood …. As to the kind of experiment: FACS, hRBC, 500 nM.
Procedure: The difference between the binding of the mutant to CD47 on the surface of tumor cells and CD47 on the surface of red blood cells was evaluated.

Sequence of PD-L1 (Q9NZQ7 19-239 limits assumed): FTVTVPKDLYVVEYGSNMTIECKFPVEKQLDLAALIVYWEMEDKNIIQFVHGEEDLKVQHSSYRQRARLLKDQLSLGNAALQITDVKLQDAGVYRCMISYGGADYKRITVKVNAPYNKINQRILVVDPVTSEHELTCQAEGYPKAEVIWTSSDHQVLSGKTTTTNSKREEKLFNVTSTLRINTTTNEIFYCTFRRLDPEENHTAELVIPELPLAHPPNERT

B1: anti-human CD47/PD-L1 bispecific antibody 2MW1531-m9 (bispecific antibody, human IgG4 S228P, kappa)
heavy 1: EVQLVQSGAEVKKPGASVKVSCKASGYKFTNYVMSWVRQAPGQRLEWMGYINPYNDAIKYNEKFTGRVTITRDTSASTAYMELSSLRSEDTAVYYCAREGDFYANYGRLGFAYWGQGTLVTVSSASTKGPSVFPLAPCSRSTSESTAALGCLVKDYFPEPVTVSWNSGALTSGVHTFPAVLQSSGLYSLSSVVTVPSSSLGTQTYTCNVDHKPSNTKVDKRVESKYGPPCPPCPAPEFLGGPSVFLFPPKPKDTLMISRTPEVTCVVVDVSQEDPEVQFNWYVDGVEVHNAKTKPREEQYNSTYRVVSVLTVLHQDWLNGKEYKCKVSNKGLPSSIEKTISKAKGQPREPQVYTLPPSQKEMTKNQVSLTCLVKGFYPSDIAVEWESNGQPENNYKTTPPVLDSDGSFFLYSKLTVDKSRWQEGNVFSCSVMHEALHNRYTQKSLSLSLGK
heavy 2: EVQLVQSGAEVKKPGATVKISCKVSGFNIKDIYMHWVQQAPGKGLEWMGRIDPANANTKYDPKFQDRVTITADTSTNTAYMELSSLRSEDTAVYYCASGQLGPLGFDYWGQGTTVTVSSASTKGPSVFPLAPCSRSTSESTAALGCLVKDYFPEPVTVSWNSGALTSGVHTFPAVLQSSGLYSLSSVVTVPSSSLGTQTYTCNVDHKPSNTKVDKRVESKYGPPCPPCPAPEFLGGPSVFLFPPKPKDTLMISRTPEVTCVVVDVSQEDPEVQFNWYVDGVEVHNAKTKPREEQYNSTYRVVSVLTVLHQDWLNGKEYKCKVSNKGLPSSIEKTISKAKGQPREPQVYTLPPSQEEMTKNQVSLTCLVKGFYPSDIAVEWESNGQPENNYKTTPPVLDSDGSFFLYSKLTVDKSRWQEGNVFSCSVMHEALHNHYTQESLSLSLGK
VL: DIQMTQSPSSLSASVGDRVTITCRASQDISNYLNWYQQKPGKAPKLLLYYTSRLHSGVPSRFSGSGSGTDYTLTISSLQPEDFATYFCQQGDTFPYTFGGGTKVEIKRTVAAPSVFIFPPSDEQLKSGTASVVCLLNNFYPREAKVQWKVDNALQSGNSQESVTEQDSKDSTYSLSSTLTLSKADYEKHKVYACEVTHQGLSSPVTKSFNRGEC
notes: Knobs-into-holes with a common light chain
As to B1, in assay [1], the Kd (commonly the constant that tells how readily two partners part at equilibrium) came out at 79.6 nM; the koff (commonly the first-order rate constant of dissociation) came to 0.00947 s⁻¹; the kon (in general, the rate constant with which the complex forms) worked out at 119000 M⁻¹ s⁻¹. In assay [2], this molecule came in with a Kd of 0.706 nM, a koff of 0.000272 s⁻¹ and a kon of 385000 M⁻¹ s⁻¹. In addition, the “Binding to human red blood cells (MFI)” value in assay [3] is 781 MFI. Besides, the “Binding to tumor cells (MFI)” value in assay [4] turned out to be 37800 MFI.

B2: anti-human CD47/PD-L1 bispecific antibody 2MW1531-m3 (bispecific antibody)
heavy 1: EVQLVQSGAEVKKPGASVKVSCKASGYKFTNYVMSWVRQAPGQRLEWMGYINPYNDAIKYNEKFTGRVTITRDTSASTAYMELSSLRSEDTAVYYCAREGDFYANYGRLGFAYWGQGTLVTVSSASTKGPSVFPLAPCSRSTSESTAALGCLVKDYFPEPVTVSWNSGALTSGVHTFPAVLQSSGLYSLSSVVTVPSSSLGTQTYTCNVDHKPSNTKVDKRVESKYGPPCPPCPAPEFLGGPSVFLFPPKPKDTLMISRTPEVTCVVVDVSQEDPEVQFNWYVDGVEVHNAKTKPREEQYNSTYRVVSVLTVLHQDWLNGKEYKCKVSNKGLPSSIEKTISKAKGQPREPQVYTLPPSQKEMTKNQVSLTCLVKGFYPSDIAVEWESNGQPENNYKTTPPVLDSDGSFFLYSKLTVDKSRWQEGNVFSCSVMHEALHNRYTQKSLSLSLGK
heavy 2: EVQLVQSGAEVKKPGATVKISCKVSGFNIKDIYMHWVQQAPGKGLEWMGRIDPANANTKYDPKFQDRVTITADTSTNTAYMELSSLRSEDTAVYYCASGQLGPLGFDYWGQGTTVTVSSASTKGPSVFPLAPCSRSTSESTAALGCLVKDYFPEPVTVSWNSGALTSGVHTFPAVLQSSGLYSLSSVVTVPSSSLGTQTYTCNVDHKPSNTKVDKRVESKYGPPCPPCPAPEFLGGPSVFLFPPKPKDTLMISRTPEVTCVVVDVSQEDPEVQFNWYVDGVEVHNAKTKPREEQYNSTYRVVSVLTVLHQDWLNGKEYKCKVSNKGLPSSIEKTISKAKGQPREPQVYTLPPSQEEMTKNQVSLTCLVKGFYPSDIAVEWESNGQPENNYKTTPPVLDSDGSFFLYSKLTVDKSRWQEGNVFSCSVMHEALHNHYTQESLSLSLGK
VL: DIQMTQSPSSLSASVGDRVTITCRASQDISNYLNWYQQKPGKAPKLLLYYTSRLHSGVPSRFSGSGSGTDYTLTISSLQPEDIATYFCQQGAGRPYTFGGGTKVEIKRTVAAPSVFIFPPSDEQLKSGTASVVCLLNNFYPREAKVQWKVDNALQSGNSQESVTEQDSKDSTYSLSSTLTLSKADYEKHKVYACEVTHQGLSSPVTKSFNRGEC
notes: as for B1
For the molecule B2, in assay [1], the Kd came to 65.7 nM, the koff is 0.00769 s⁻¹ and the kon turned out to be 117000 M⁻¹ s⁻¹. In assay [2], this molecule showed a Kd of 1.02 nM, a koff of 0.000163 s⁻¹ and a kon of 159000 M⁻¹ s⁻¹. In addition, the “Binding to human red blood cells (MFI)” value in assay [3] was determined as 955 MFI. Moreover, in assay [4], the “Binding to tumor cells (MFI)” value amounted to 34900 MFI.

B3: anti-human CD47/PD-L1 bispecific antibody 2MW1531-m10 (bispecific antibody)
heavy 1: EVQLVQSGAEVKKPGASVKVSCKASGYKFTNYVMSWVRQAPGQRLEWMGYINPYNDAIKYNEKFTGRVTITRDTSASTAYMELSSLRSEDTAVYYCAREGDFYANYGRLGFAYWGQGTLVTVSSASTKGPSVFPLAPCSRSTSESTAALGCLVKDYFPEPVTVSWNSGALTSGVHTFPAVLQSSGLYSLSSVVTVPSSSLGTQTYTCNVDHKPSNTKVDKRVESKYGPPCPPCPAPEFLGGPSVFLFPPKPKDTLMISRTPEVTCVVVDVSQEDPEVQFNWYVDGVEVHNAKTKPREEQYNSTYRVVSVLTVLHQDWLNGKEYKCKVSNKGLPSSIEKTISKAKGQPREPQVYTLPPSQKEMTKNQVSLTCLVKGFYPSDIAVEWESNGQPENNYKTTPPVLDSDGSFFLYSKLTVDKSRWQEGNVFSCSVMHEALHNRYTQKSLSLSLGK
heavy 2: EVQLVQSGAEVKKPGATVKISCKVSGFNIKDIYMHWVQQAPGKGLEWMGRIDPANANTKYDPKFQDRVTITADTSTNTAYMELSSLRSEDTAVYYCASGQLGPLGFDYWGQGTTVTVSSASTKGPSVFPLAPCSRSTSESTAALGCLVKDYFPEPVTVSWNSGALTSGVHTFPAVLQSSGLYSLSSVVTVPSSSLGTQTYTCNVDHKPSNTKVDKRVESKYGPPCPPCPAPEFLGGPSVFLFPPKPKDTLMISRTPEVTCVVVDVSQEDPEVQFNWYVDGVEVHNAKTKPREEQYNSTYRVVSVLTVLHQDWLNGKEYKCKVSNKGLPSSIEKTISKAKGQPREPQVYTLPPSQEEMTKNQVSLTCLVKGFYPSDIAVEWESNGQPENNYKTTPPVLDSDGSFFLYSKLTVDKSRWQEGNVFSCSVMHEALHNHYTQESLSLSLGK
VL: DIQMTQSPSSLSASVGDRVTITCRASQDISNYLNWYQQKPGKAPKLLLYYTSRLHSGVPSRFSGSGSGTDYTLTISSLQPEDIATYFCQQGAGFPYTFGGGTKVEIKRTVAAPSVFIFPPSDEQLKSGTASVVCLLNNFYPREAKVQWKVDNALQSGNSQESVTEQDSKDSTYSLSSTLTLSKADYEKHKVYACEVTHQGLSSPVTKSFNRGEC
notes: as for B1
As for B3, in assay [1], the dissociation constant Kd is 54.8 nM, the koff came out at 0.00547 s⁻¹ and the kon was 99800 M⁻¹ s⁻¹. Also, in assay [2], the Kd amounted to 1.28 nM, the koff worked out at 0.000369 s⁻¹ and the kon was determined as 288000 M⁻¹ s⁻¹. Moreover, the “Binding to human red blood cells (MFI)” value in assay [3] was found to be 890 MFI. In addition, the “Binding to tumor cells (MFI)” value in assay [4] was 26200 MFI.

B4: anti-human CD47/PD-L1 bispecific antibody 2MW1531-m11 (bispecific antibody)
heavy 1: EVQLVQSGAEVKKPGASVKVSCKASGYKFTNYVMSWVRQAPGQRLEWMGYINPYNDAIKYNEKFTGRVTITRDTSASTAYMELSSLRSEDTAVYYCAREGDFYANYGRLGFAYWGQGTLVTVSSASTKGPSVFPLAPCSRSTSESTAALGCLVKDYFPEPVTVSWNSGALTSGVHTFPAVLQSSGLYSLSSVVTVPSSSLGTQTYTCNVDHKPSNTKVDKRVESKYGPPCPPCPAPEFLGGPSVFLFPPKPKDTLMISRTPEVTCVVVDVSQEDPEVQFNWYVDGVEVHNAKTKPREEQYNSTYRVVSVLTVLHQDWLNGKEYKCKVSNKGLPSSIEKTISKAKGQPREPQVYTLPPSQKEMTKNQVSLTCLVKGFYPSDIAVEWESNGQPENNYKTTPPVLDSDGSFFLYSKLTVDKSRWQEGNVFSCSVMHEALHNRYTQKSLSLSLGK
heavy 2: EVQLVQSGAEVKKPGATVKISCKVSGFNIKDIYMHWVQQAPGKGLEWMGRIDPANANTKYDPKFQDRVTITADTSTNTAYMELSSLRSEDTAVYYCASGQLGPLGFDYWGQGTTVTVSSASTKGPSVFPLAPCSRSTSESTAALGCLVKDYFPEPVTVSWNSGALTSGVHTFPAVLQSSGLYSLSSVVTVPSSSLGTQTYTCNVDHKPSNTKVDKRVESKYGPPCPPCPAPEFLGGPSVFLFPPKPKDTLMISRTPEVTCVVVDVSQEDPEVQFNWYVDGVEVHNAKTKPREEQYNSTYRVVSVLTVLHQDWLNGKEYKCKVSNKGLPSSIEKTISKAKGQPREPQVYTLPPSQEEMTKNQVSLTCLVKGFYPSDIAVEWESNGQPENNYKTTPPVLDSDGSFFLYSKLTVDKSRWQEGNVFSCSVMHEALHNHYTQESLSLSLGK
VL: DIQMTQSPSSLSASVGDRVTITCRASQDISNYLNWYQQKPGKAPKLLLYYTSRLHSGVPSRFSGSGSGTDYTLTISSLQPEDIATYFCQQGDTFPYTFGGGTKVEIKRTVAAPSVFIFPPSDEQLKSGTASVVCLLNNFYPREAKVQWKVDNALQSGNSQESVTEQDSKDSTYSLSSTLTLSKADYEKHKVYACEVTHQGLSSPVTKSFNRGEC
notes: as for B1
Regarding B4, in assay [1], the Kd worked out at 74.9 nM, the koff stood at 0.00907 s⁻¹ and the kon is 121000 M⁻¹ s⁻¹. In assay [2], this molecule showed a Kd of 0.784 nM, a koff of 0.000237 s⁻¹ and a kon of 302000 M⁻¹ s⁻¹. For the same molecule, the “Binding to human red blood cells (MFI)” value in assay [3] is 878 MFI. Further, the “Binding to tumor cells (MFI)” value in assay [4] turned out to be 28900 MFI.

B5: h140Hm13/h140Lm1 (antibody, V domains shown)
VH: EVQLVQSGAEVKKPGASVKVSCKASGYKFTNYVMSWVRQAPGQRLEWMGYINPYNDAIKYNEKFTGRVTITRDTSASTAYMELSSLRSEDTAVYYCAREGDFYANYGRLGFAYWGQGTLVTVSS
VL: DIQMTQSPSSLSASVGDRVTITCRASQDISNYLNWYQQKPGKAPKLLIYYTSRLHSGVPSRFSGSGSGTDYTFTISSLQPEDIATYFCQQGDTFPRTFGGGTKVEIK
notes: also called h140Lml
On to B5, for which, in assay [5], the “FACS (MFI)” value is 28700 MFI.

B6: h140Hm13/h140Lm2 (antibody, V domains shown)
VH: EVQLVQSGAEVKKPGASVKVSCKASGYKFTNYVMSWVRQAPGQRLEWMGYINPYNDAIKYNEKFTGRVTITRDTSASTAYMELSSLRSEDTAVYYCAREGDFYANYGRLGFAYWGQGTLVTVSS
VL: DIQMTQSPSSLSASVGDRVTITCRASQDITNYLNWYQQKPGKAPKLLLYYTSRLHSGVPSRFSGSGSGTDYTFTISSLQPEDIATYFCQQGDTFPRTFGGGTKVEIK
As for B6, the “FACS (MFI)” value in assay [5] came to 26100 MFI.

B7: h140Hm13/h140Lm4 (antibody, V domains shown)
VH: EVQLVQSGAEVKKPGASVKVSCKASGYKFTNYVMSWVRQAPGQRLEWMGYINPYNDAIKYNEKFTGRVTITRDTSASTAYMELSSLRSEDTAVYYCAREGDFYANYGRLGFAYWGQGTLVTVSS
VL: DIQMTQSPSSLSASVGDRVTITCRASQDITNYLNWYQQKPGKAPKLLIYYTSRLHSGVPSRFSGSGSGTDYTFTISSLQPEDFATYFCQQGDTFPRTFGGGTKVEIK
Turning to B7, the “FACS (MFI)” value in assay [5] is 24200 MFI.

B8: h140Hm13/h140Lm3 (antibody, V domains shown)
VH: EVQLVQSGAEVKKPGASVKVSCKASGYKFTNYVMSWVRQAPGQRLEWMGYINPYNDAIKYNEKFTGRVTITRDTSASTAYMELSSLRSEDTAVYYCAREGDFYANYGRLGFAYWGQGTLVTVSS
VL: DIQMTQSPSSLSASVGDRVTITCRASQDITNYLNWYQQKPGKAPKLLIYYTSRLHSGVPSRFSGSGSGTDYTLTISSLQPEDIATYFCQQGDTFPRTFGGGTKVEIK
Regarding B8, the “FACS (MFI)” value in assay [5] is 30600 MFI.
